From patent EP4778939A1 (Jiangsu Hengrui Pharmaceuticals Co., Ltd., dated 2026)

B1: F4-0G4S-1 (bispecific antibody)
heavy 1: not shown
light 1: not shown
heavy 2: EVQLVQSGAEVKKPGASVKVSCKVSGYTFTDYPIHWMRQAPGQGLEWMGYVFPRDGSTKYNEKFRVRVTWTADKSTSTVYMELSSLRSEDTAVYYCSRELTAYWGQGTTVTVSSASTKGPSVFPLAPSSKSTSGGTAALGCLVKDYFPEPVTVSWNSGALTSGVHTFPAVLQSSGLYSLSSVVTVPSSSLGTQTYICNVNHKPSNTKVDKKVEPKSCDKTHTCPPCPAPEAAGGPSVFLFPPKPKDTLMISRTPEVTCVVVDVSHEDPEVKFNWYVDGVEVHNAKTKPREEQYNSTYRVVSVLTVLHQDWLNGKEYKCKVSNKALPAPIEKTISKAKGQPREPQVCTLPPSRDELTKNQVSLSCAVKGFYPSDIAVEWESNGQPENNYKTTPPVLDSDGSFFLVSKLTVDKSRWQQGNVFSCSVMHEALHNHYTQKSLSLSPGK
light 2: DVVLTQSPLSLPVTLGQPASISCKSSQSLLHSSGKTYLNWLLQRPGQSPRRLIYLVSKLDSGVPDRFSGSGSGTDFTLKISRVEAEDVGVYYCAQGTHFPRTFGGGTKVEIKRTVAAPSVFIFPPSDEQLKSGTASVVCLLNNFYPREAKVQWKVDNALQSGNSQESVTEQDSKDSTYSLSSTLTLSKADYEKHKVYACEVTHQGLSSPVTKSFNRGEC
B2: F2-0G4S-1 (bispecific antibody)
heavy 1: not shown
light 1: DVVMTQTPLSLSVTPGQPASISCRSSQSLVHSQGNTYLYWYLQKPGQSPKLLIYKVSNRFSGVPDRFSGSGSGTDFTLKISRVEAEDVGVYYCSQSTHVPPLTFGQGTKLEIKRTVAAPSVFIFPPSDEQLKSGTASVVCLLNNFYPREAKVQWKVDNALQSGNSQESVTEQDSKDSTYSLSSTLTLSKADYEKHKVYACEVTHQGLSSPVTKSFNRGEC
heavy 2: not shown
light 2: not shown

Target: human GPRC5D (human, UniProt Q9NZD1 1-345)
Assay: cell-based or functional assay

Chain of human GPRC5D (Q9NZD1 whole entry): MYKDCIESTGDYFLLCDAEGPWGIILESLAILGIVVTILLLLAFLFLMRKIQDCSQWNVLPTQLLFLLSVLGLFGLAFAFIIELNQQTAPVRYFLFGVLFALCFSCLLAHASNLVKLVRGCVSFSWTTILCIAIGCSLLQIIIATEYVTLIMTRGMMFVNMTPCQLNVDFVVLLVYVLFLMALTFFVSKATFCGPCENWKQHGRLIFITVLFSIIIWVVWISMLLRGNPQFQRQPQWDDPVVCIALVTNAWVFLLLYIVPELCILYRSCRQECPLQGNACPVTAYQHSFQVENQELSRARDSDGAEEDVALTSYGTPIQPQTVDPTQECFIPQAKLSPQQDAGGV

Row | Binder | EC50 ratio (relative to JNJ-64407564), cytotoxic activity against NCI-H929 [ratio]
1 | B1 | 0.09
2 | B2 | 0.57
